# Biological target: T1, human plasma kallikrein (human, UniProt P03952 20-390; P03952 391-638)
# T1 construct: two disulfide-linked chains; also called pKal; human pKal
# Assay: ELISA; signal on coated biotinylated human plasma kallikrein divided by signal on streptavidin; Fab
# Source text: Abbreviations used: "T/B" is the ELISA signal obtained using of the target (biotinylated plasma kallikrein) divided by the ELISA signal of the "background" (streptavidin); both of which were coated on microtiter plates. "nd" is not determined. The symbol "q" refers to the amber suppressible stop codon (TAG), which is translated as glutamine (Q) in strains of E. coli such as the TG1 cells that were used to express the Fab fragments.
# T1 sequence (P03952 20-390, chain 1 of 2): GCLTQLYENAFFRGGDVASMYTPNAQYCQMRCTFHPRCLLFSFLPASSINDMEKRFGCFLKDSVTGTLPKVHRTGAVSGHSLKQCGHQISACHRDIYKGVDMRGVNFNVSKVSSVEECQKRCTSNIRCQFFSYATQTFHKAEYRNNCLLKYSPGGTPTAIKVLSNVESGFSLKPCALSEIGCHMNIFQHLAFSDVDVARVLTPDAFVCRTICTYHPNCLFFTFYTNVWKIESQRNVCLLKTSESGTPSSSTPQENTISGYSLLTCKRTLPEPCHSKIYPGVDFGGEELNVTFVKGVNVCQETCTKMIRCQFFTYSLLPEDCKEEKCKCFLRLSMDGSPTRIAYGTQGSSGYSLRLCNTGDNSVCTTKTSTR
# T1 sequence (P03952 391-638, chain 2 of 2): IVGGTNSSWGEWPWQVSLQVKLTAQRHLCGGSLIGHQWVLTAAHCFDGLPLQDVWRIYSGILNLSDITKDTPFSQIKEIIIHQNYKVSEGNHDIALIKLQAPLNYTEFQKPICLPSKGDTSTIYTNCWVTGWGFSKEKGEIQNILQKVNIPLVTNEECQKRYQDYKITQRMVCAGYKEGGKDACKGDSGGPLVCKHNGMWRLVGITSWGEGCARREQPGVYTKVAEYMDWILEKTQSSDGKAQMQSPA
row,Binder,Human pKal ELISA (T/B)
1,"M12-C09 (Fab, V domains shown, Fab fragment (E. coli TG1); printed HC runs into the start of CH1; tied to M12-C09 by its CDRs; also called M12-009) VH: EVQLLESGGGLVQPGGSLRLSCAASGFTFSSYAMVWVRQAPGKGLEWVSSIGSSGGFTLYADSVKGRFTISRDNSKNTLYLQMNSLRAEDTAVYYCASMNLGGGDAFDIWGQGTMVTVSS VL: DIQMTQSPSSLSASVGDRVTITCRASQSIGIYLNWYHQKPGKAPNLLIYGASSLQSGVPSRFSGSGSGTDFTLTISSLQPGDFATYYCQHSYSTPFTFGGGTKVEIK",7 T/B (target signal / background signal)
2,"M27-G09 (Fab, V domains shown, Fab fragment (E. coli TG1); printed HC runs into the start of CH1) VH: EVQLLESGGGLVQPGGSLRLSCAASGFTFSEYDMAWVRQAPGKGLEWVSYIVSSGGFTSYADSVKGRFTISRDNSKNTLYLQMNSLRAEDTAVYYCTTWAGWIAAADYWGQGTLVTVSS VL: DIQMTQSPSSVSASVGDRITITCRTRQSISNYLNWYQQKPGEPPKLLIFAASSLQSGVPSRFSGSGTGTEFTLTISSLQPEDLAIYYCQQSYDIPFTFGQGTKLEIK",2.2 T/B (target signal / background signal)
3,"M27-E03 (Fab, V domains shown, Fab fragment (E. coli TG1); printed HC runs into the start of CH1) VH: EVQLLESGGGLVQPGGSLRLSCAASGFTFSSYMMHWVRQAPGKGLEWVSGIYPSGGWTDYADSVKGRFTISRDNSKNTLYLQMNSLRAEDTATYYCARLVAGLDAFDIWGQGTMVTVSS VL: not shown",35.9 T/B (target signal / background signal)
4,"M27-B12 (Fab, V domains shown, Fab fragment (E. coli TG1); printed HC runs into the start of CH1) VH: EVQLLESGGGLVQPGGSLRLSCAASGFTFSWYQMMWVRQAPGKGLEWVSSISPSGGITEYADSVKGRFTISRDNSKNTLYLQMNSLRAEDTAVYYCARDRSSGWYYYGMDVWGQGTTVTVSS VL: QYELTQPPAVSVSPGQTATITCSGDKLGDEYAAWYQQKPGQSPVLVIYQDRKRPSGIPERFSGSNFGNTATLTITGTQVMDEADYYCQAWGKRNVVFGGGTKLTVL",2.3 T/B (target signal / background signal)
5,"M27-A10 (Fab, V domains shown, Fab fragment (E. coli TG1); printed HC runs into the start of CH1) VH: EVQLLESGGGLVQPGGSLRLSCAASGFTFSWYRMDWVRQAPGKGLEWVSSIWPSGGLTSYADSVKGRFTISRDNSKNTLYLQMNSLRAEDTAVYYCARGWAPGGDAFDIWGQGTMVTVSS VL: DIQMTQSPSSLSASVGDRVTITCRASQSISAYLNWYQQKPGKAPQLLMYGVGSLQSGVPSRFSGSGSGTDFTLTISSLQPEDFATYFCQQGYTTPVTFGGGTKVEIK",3.2 T/B (target signal / background signal)
6,"M12-E06 (Fab, V domains shown, Fab fragment (E. coli TG1); printed HC runs into the start of CH1) VH: EVQLLESGGGLVQPGGSLRLSCAASGFTFSQYKMLWVRQAPGKGLEWVSGIGPSGGLTAYADSVKGRFTISRDNSKNTLYLQMNSLRAEDTAVYYCARAPWFGELGMDVWGQGTTVTVSS VL: DIQMTQSPSSLSASVGDRVSITCRASQSISTYLNWYQHKPGKAPTLLIYGAFSLQSGVPSRFSGSGSGTDFALTISSLQPEDFATYYCQQSHSTPPTFGQGTRVEIK",48 T/B (target signal / background signal)
7,"M12-D10 (Fab, V domains shown, Fab fragment (E. coli TG1); printed HC runs into the start of CH1) VH: EVQLLESGGGLVQPGGSLRLSCAASGFTFSNYPMDWVRQAPGKGLEWVSSISSSGGWTNYADSVKGRFTISRDNSKNTLYLQMNSLRAEDTAVYYCATDTSGSYLGFDYWGQGTLVTVSS VL: not shown",9.9 T/B (target signal / background signal)
8,"M27-H10 (Fab, V domains shown, Fab fragment (E. coli TG1); printed HC runs into the start of CH1) VH: EVQLLESGGGLVQPGGSLRLSCAASGFTFSAYQMAWVRQAPGKGLEWVSVIYSSGGYTDYADSVKGRFTISRDNSKNTLYLQMNSLRAEDTAVYYCARHNWNDGAFDIWGQGTMVTVSS VL: DIQMTQSPSSLSASVGDRVTITCRASQSISNYLNWYQQKPGKAPKFLIYAASSLQSGVPSRFSGSGSGTDFTLSISSLQPEDFATYYCQQSYSTPQTFGQGTKVEMK",12.4 T/B (target signal / background signal)
9,"M28-D02 (Fab, V domains shown, Fab fragment (E. coli TG1); printed HC runs into the start of CH1; The LC is printed with an amber codon 'q' (QDIqMTQ), written here as Q) VH: EVQLLESGGGLVQPGGSLRLSCAASGFTFSWYPMQWVRQAPGKGLEWVSYIYPSGGGTDYADSVKGRFTISRDNSKNTLYLQMNSLRAEDTATYYCATSSGWLGDAFDIWGQGTMVTVSS VL: DIQMTQSPSSLSASEGDMVTITCRTSRRIGTYLNWYQQKPGKAPKLLIYGASSLQSGVPSRFSGSGSGTDFTLTVSSLQPEDVGTYYCQQSFSSPWTFGPGTKVEIK",3.7 T/B (target signal / background signal)
10,"M28-C03 (Fab, V domains shown, Fab fragment (E. coli TG1); printed HC runs into the start of CH1) VH: EVQLLESGGGLVQPGGSLRLSCAASGFTFSYYQMGWVRQAPGKGLEWVSSIYPSGGMTDYADSVKGRFTISRDNSKNTLYLQMNSLRAEDTAVYYCTRGSPWGDDAFDIWGQGTMVTVSS VL: DIQMTQSPSSLSASVGDRVTITCRASQSINFYLNWYQQKPGKAPKLLIYVASSLESGVPSRFSGSASGTEFTLTISSLQPEDFATYYCLQSYSAPYTFGQGTKVEIT",2.2 T/B (target signal / background signal)
11,"M27-G01 (Fab, V domains shown, Fab fragment (E. coli TG1); printed HC runs into the start of CH1) VH: EVQLLESGGGLVQPGGSLRLSCAASGFTFSLYRMFWVRQAPGKGLEWVSSIWSSGGPTMYADSVKGRFTISRDNSKNTLYLQMNSLRAEDTAVYYCAREYPSTYYFDYWGQGTLVTVSS VL: DIQMTQSPSSLSASVGDRVTITCRASQSISTYLNWYQQKPGKAPKLLIYGASSLQSGVPSRFSGSGSGTDFTLTISSLQPEDFTIYYCQQSYSDPYTFGQGTKLDIK",31.4 T/B (target signal / background signal)
12,"M27-F11 (Fab, V domains shown, Fab fragment (E. coli TG1); printed HC runs into the start of CH1) VH: EVQLLESGGGLVQPGGSLRLSCAASGFTFSSYHMMWVRQAPGKGLEWVSSIYPSGGATMYADSVKGRFTISRDNSKNTLYLQMNSLRAEDTAMYYCARDGYHYGDYTYFQHWGQGTLVTVSS VL: DIQMTQSPSFLSASVGDRVTITCRASQGISSYLAWYQQKPGKAPKLLIYAASSLQSGVPSRFSGSGSGTDFTLTISSLQPEDFATYYCQQSYNTLRTFGPGTKVDLK",10 T/B (target signal / background signal)
13,"M12-C10 (Fab, V domains shown, Fab fragment (E. coli TG1); printed HC runs into the start of CH1 and printed LC into the start of the lambda constant region (GQPK)) VH: EVQLLESGGGLVQPGGSLRLSCAASGFTFSDYEMHWVRQAPGKGLEWVSGISPSGGKTQYADSVKGRFTISRDNSKNTLYLQMNSLRAEDTAVYYCARDLKWGGRGSPDWYFDLWGRGTLVTVSS VL: QSALTQPPSVSVSPGQTASITCSGDKLGEKYVSWYQQKPGQSPVVVIYQDNKRPSGIPERFSGSNSGNTATLTISGTQAVDEADYYCQAWDSYTVVFGGGSKLTVLG",8.3 T/B (target signal / background signal)
14,"M27-F04 (Fab, V domains shown, Fab fragment (E. coli TG1); printed HC runs into the start of CH1) VH: EVQLLESGGGLVQPGGSLRLSCAASGFTFSWYPMTWVRQAPGKGLEWVSSIGPSGGQTIYADSVKGRFTISRDNSKNTLYLQMNSLRAEDTAVYYCTTEYGDYGGGFDPWGQGTLVTVSS VL: not shown",10.5 T/B (target signal / background signal)
15,"M27-B01 (Fab, V domains shown, Fab fragment (E. coli TG1); printed HC runs into the start of CH1) VH: EVQLLESGGGLVQPGGSLRLSCAASGFTFSDYTMWWVRQAPGKGLEWVSSISSSGGITFYADSVKGRFTISRDNSKNTLYLQMNSLRAEDTAVYYCARSADTAMGGAFDIWGQGTMVTVSS VL: not shown",33.1 T/B (target signal / background signal)
16,"M28-A01 (Fab, V domains shown, Fab fragment (E. coli TG1); printed HC runs into the start of CH1) VH: EVQLLESGGGLVQPGGSLRLSCAASGFTFSWYAMHWVRQAPGKGLEWVSGIYSSGGYTKYADSVKGRFTISRDNSKNTLYLQMNSLRAEDTAVYYCARDLSNGDDVFDIWGQGTMVTVSS VL: not shown",19 T/B (target signal / background signal)
17,"M27-G04 (Fab, V domains shown, Fab fragment (E. coli TG1); printed HC runs into the start of CH1) VH: EVQLLESGGGLVQPGGSLRLSCAASGFTFSAYYMVWVRQAPGKGLEWVSYISPSGGQTQYADSVKGRFTISRDNSKNTLYLQMNSLRAEDTAVYYCAREAISSSSFDYWGQGTLVTVSS VL: DIQMTQSPSSLSASVGDRVTITCRASQRISYYLTWYQQKPGKVPKLLIYAASSLESGVPSRFSGSGSGTDFTLTISNLQPEDFATYYCQQAFSTPFTFGGGTKVEIK",4.1 T/B (target signal / background signal)

# Reference: patent US9266964
